Results published in patent publication US10100120B2, “Antibody which specifically binds to human CRTH2” (KYOWA HAKKO KIRIN CO., LTD, priority 2015, dated 2018).
Substitutions are numbered along the chain they refer to. Values belong to the molecule of their own block, whether it stands above or below them.

Legend:
Th2 cells = assay: Cytotoxic activity against Th2 cells: cytokine production of PBMC after antibody treatment; type: cell-based, human; details: antibody 10 μg/mL 20 hours, then anti-CD3/anti-CD28 stimulation 3 days
Protocol: The mononuclear cell layer prepared in the same manner as in Example 13 was washed twice with RPMI-1640 (Wako Pure Chemical Industries) to which 1/10 volume FBS (GIBCO Inc.), 200 mM-L-Glutamine Stock Solution (NACALAI TESQUE, Inc.), 10 mM MEM Non-Essential Amino Acids Solution (GIBCO Inc.), 100 mM Sodium Pyruvate (GIBCO Inc.), 1 M HEPES Buffer Solution (GIBCO Inc.), and 1/100 volume Penicillin-Streptomycin, Liquid (GIBCO Inc.) were added [hereinafter, referred to as peripheral blood mononuclear cell (PBMC) culture medium], thereby preparing a 1×10^7 cells/mL cell suspension.
The prepared cell suspension was seeded in a 96-well plate at 100 μL/well, chLym2 antibody, the humanized anti-human CRTH2 antibody LV0HV1 or the isotype control antibody described in Example 8 was added thereto at a final concentration of 10 μg/mL to cause a reaction in a 5% CO2 incubator at 37° C. for 20 hours.
The cells after the reaction were washed 7 times with a PBMC culture medium to remove the test antibodies thoroughly. Thereafter, the cells were suspended with 100 μL of PBMC culture medium and seeded in a plate in which anti-CD3 antibody OKT3 (Abeam plc.) was immobilized at a concentration of 1 μg/mL. Next, an anti-CD28 antibody (BD Biosciences) prepared to have a concentration of 2 μg/mL was added thereto at 100 μL/well to cause a reaction in a 5% CO2 incubator at 37° C. for 3 days.
The supernatant after the reaction was recovered, and cytokine in the supernatant was quantified using Human IFN-γ Flex Set (BD Biosciences), Human IL-5 Flex Set (BD Biosciences), and Human IL-13 Flex Set (BD Biosciences) according to the attached instructions.

human CRTH2 = biological target: T1, human CRTH2 (Homo sapiens, UniProt Q9Y5Y4); assay: Binding activity against Azami-Green fusion human CRTH2-expressing CHO/DG44 cells; details: 2-30000 ng/mL, compared with monkey CRTH2; FIG. 21
T1 construct: expressed in transfected cells
T1 sequence (Q9Y5Y4 1-395): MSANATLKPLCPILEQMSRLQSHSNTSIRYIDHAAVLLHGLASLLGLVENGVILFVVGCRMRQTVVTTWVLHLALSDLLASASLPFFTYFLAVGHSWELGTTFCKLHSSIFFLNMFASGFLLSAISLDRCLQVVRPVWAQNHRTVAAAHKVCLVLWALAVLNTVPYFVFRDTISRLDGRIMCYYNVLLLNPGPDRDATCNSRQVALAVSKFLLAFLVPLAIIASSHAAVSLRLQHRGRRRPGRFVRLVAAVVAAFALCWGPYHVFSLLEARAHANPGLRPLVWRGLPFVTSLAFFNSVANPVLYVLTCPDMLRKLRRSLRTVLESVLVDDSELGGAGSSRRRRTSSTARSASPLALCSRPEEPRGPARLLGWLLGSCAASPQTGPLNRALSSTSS
Protocol: The Azami-Green fusion human CRTH2-expressing CHO/DG44 cells and the cynomolgus monkey CRTH2-expressing CHO/DG44 cells established in Example 24 were peeled using 0.02% EDTA solution (NACALAI TESQUE, Inc.), washed with PBS, and suspended with SM. Next, the cells were seeded in a 96-well plate such that each well had 2×10^5 cells, and humanized Lym2 antibody LV0HV1 or the anti-DNP IgG1 antibody at each of final concentrations 30000, 7500, 1875, 469, 117, 29, 7, and 2 ng/mL were added thereto to cause a reaction at 4° C. for 40 minutes.
After the cells were washed three times with SM, goat anti-Human IgG alexa 647 (Molecular Probes) diluted to a concentration of 10 μg/mL with SM was added thereto at 100 μL/well to perform a reaction at 4° C. for 40 minutes. The cells were washed with SM and resuspended with 100 μL of SM, and the fluorescent intensity was measured by flow cytometry (BD Biosciences, FACS CantoII).
The data was analyzed by FLowJo 7.65 (Tomy Digital Biology Co., Ltd.).

human eosinophils = assay: Reactivity against human eosinophils, flow cytometry; type: binding; details: 0.12-10 μg/mL, 4° C., 1 hour; FIG. 8
Protocol: To human peripheral blood collected by adding a heparin sodium injection liquid, the same amount of physiological saline for injection as the human peripheral blood was added thereto and mixed with each other. 15 mL of Ficoll-Paque PREMIUM 1.084 (GE Healthcare) was added to a 50 mL centrifuge tube, 30 mL of the above described human peripheral blood diluted with physiological saline was overlaid thereon, and centrifugation was performed at room temperature and 1500 rpm for 30 minutes. […]
After the number of cells was counted, eosinophils were isolated by a negative selection method using CD16 MicroBeads, human (Miltenyi Biotec) according to the attached instructions. […]
After the cells were washed, CELL LAB Mouse Anti-Rat Kappa (kappa light chain specific) FITC (Beckman Coulter Inc.) diluted with SM was added to wells to which Lym2 antibody or BM16 was added and CELL LAB Goat Anti-Mouse IgG (γ chain specific) Fluorescein (FITC) Conjugate (Beckman Coulter Inc.) diluted with SM was added to wells to which 301108 was added at a final concentration of 10 μg/mL respectively to cause a reaction at 4° C. for 1 hour. The cells were washed again and suspended with SM, and the fluorescent intensity was analyzed by flow cytometry (BD Biosciences, FACS CantoII).

binding activity against human CRTH2 (human CRTH2): substantially the same as each other
B1: LV0HV1: humanized Lym2 antibody, VL LV0 (SEQ ID NO: 33), VH HV1 (SEQ ID NO: 51) (antibody, V domains shown)
VH: EVQLVESGGGVVQPGRSLRLSCAASGFTFSNYYMAWVRQAPGKGLEWVATISYDGSSTYYRDSVKGRFTISRDNAKNSLYLQMNSLRAEDTATYYCARHRGYYYSGAGYFDYWGQGTMVTVSS
VL: DIVMTQTPLSLPVTPGESASISCRSSQSLEYSDGYTYLEWYLQKPGQSPQVLIYGVSNRFSGVPDRFSGSGSGTDFTLKISRVEAEDVGVYYCFQATHDPLTFGQGTKLEIK
production of IL-5 (Th2 cytokine) (Th2 cells; FIG. 12(A)): reduced | production of IL-13 (Th2 cytokine) (Th2 cells; FIG. 12(A)): reduced | production of IFN-γ (Th1 cytokine) (Th2 cells; FIG. 12(B)): not changed

B2: Lym2 antibody: rat anti-human CRTH2 monoclonal antibody from hybridoma Lym2, rat IgG2b; VH SEQ ID NO: 17, VL SEQ ID NO: 19 (antibody, listed as Rattus norvegicus, V domains shown)
VH: B1 VH with V11L, L18M, R19K, G42K, N77S, S78T, N84D, A88S, T117V
VL: DVVLTQTPVSLSVTLGDQASISCRSSQSLEYSDGYTYLEWYLQKPGQSPQVLIYGVSNRFSGVPDRFIGSGSGTDFTLKISRVEPEDLGVYYCFQATHDPLTFGSGTKLEIK
reactivity against human eosinophils (human eosinophils): stronger reactivity
